Results published in US20190218532.

Target: SpCas9::KQ (nuclease-deficient) KQ insertion (Streptococcus pyogenes) (UniProt Q99ZW2)
Assay: cell_activity
Conditions: PAM TGG; half the fraction of GFP-positive cells of SpCas9

UniProt Q99ZW2, sequence (Q99ZW2 whole entry): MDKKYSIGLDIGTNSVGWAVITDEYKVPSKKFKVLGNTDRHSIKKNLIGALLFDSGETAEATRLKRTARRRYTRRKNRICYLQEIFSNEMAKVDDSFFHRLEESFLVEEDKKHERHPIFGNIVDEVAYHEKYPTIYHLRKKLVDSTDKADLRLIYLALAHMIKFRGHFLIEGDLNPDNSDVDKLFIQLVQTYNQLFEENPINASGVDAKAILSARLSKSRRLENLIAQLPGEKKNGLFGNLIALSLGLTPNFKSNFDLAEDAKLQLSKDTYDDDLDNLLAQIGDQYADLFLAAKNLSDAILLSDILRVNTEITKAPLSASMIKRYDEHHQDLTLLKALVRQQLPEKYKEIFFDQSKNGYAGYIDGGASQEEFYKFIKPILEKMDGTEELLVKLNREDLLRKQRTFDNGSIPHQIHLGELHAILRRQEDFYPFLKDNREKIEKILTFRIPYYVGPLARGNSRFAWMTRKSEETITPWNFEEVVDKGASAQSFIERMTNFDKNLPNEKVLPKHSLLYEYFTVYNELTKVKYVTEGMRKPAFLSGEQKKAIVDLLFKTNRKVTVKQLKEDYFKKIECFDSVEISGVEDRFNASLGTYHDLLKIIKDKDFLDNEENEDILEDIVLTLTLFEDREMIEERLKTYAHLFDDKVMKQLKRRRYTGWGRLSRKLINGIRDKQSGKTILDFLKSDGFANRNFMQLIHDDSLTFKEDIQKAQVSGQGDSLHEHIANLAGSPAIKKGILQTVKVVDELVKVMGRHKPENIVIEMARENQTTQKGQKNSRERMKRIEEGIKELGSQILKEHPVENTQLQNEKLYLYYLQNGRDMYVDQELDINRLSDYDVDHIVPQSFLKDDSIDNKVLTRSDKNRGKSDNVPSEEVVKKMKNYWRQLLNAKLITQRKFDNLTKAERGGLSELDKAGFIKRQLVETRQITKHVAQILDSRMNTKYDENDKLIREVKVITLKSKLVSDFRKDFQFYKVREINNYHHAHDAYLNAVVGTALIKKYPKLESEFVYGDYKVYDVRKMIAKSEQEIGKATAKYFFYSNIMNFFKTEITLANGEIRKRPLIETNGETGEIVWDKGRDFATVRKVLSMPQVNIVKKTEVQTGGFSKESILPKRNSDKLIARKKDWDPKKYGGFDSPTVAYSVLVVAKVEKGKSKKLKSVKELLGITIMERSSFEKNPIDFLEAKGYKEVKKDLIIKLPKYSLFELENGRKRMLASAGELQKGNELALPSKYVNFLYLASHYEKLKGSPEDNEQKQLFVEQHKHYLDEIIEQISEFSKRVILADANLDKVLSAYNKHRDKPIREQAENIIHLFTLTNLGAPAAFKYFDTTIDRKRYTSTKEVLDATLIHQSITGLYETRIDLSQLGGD

Work on “CGAAAGGUUUUGCACUCGAC / CGAAAGGTTTTGCACTCGACTGG / CCAGTCGAGTGCAAAACCTTTCG” yielded a binding signal (fraction of SpCas9 GFP-positive cells) of 0.5.
